In IntAct's records for PubMed 25910212:

B1: 5-aminolevulinate synthase, erythroid-specific, mitochondrial (Homo sapiens), P22557-2 (parent)
chain: MVTAAMLLQCCPVLARGPTSLLGKVVKTHQFLFGIGRCPILATQGPNCSQIHLKATKAGGDSPSWAKGHCPFMLSELQDGKSKIVQKAAPEVQEDVKAFKTGNYVFSYDQFFRDKIMEKKQDHTYRVFKTVNRWADAYPFAQHFSEASVASKDVSVWCSNDYLGMSRHPQVLQATQETLQRHGAGAGGTRNISGTSKFHVELEQELAELHQKDSALLFSSCFVANDSTLFTLAKILPGCEIYSDAGNHASMIQGIRNSGAAKFVFRHNDPDHLKKLLEKSNPKIPKIVAFETVHSMDGAICPLEELCDVSHQYGALTFVDEVHAVGLYGSRGAGIGERDGIMHKIDIISGTLGKAFGCVGGYIASTRDLVDMVRSYAAGFIFTTSLPPMVLSGALESVRLLKGEEGQALRRAHQRNVKHMRQLLMDRGLPVIPCPSHIIPIRVGNAALNSKLCDLLLSKHGIYVQAINYPTVPRGEELLRLAPSPHHSPQMMEDFVEKLLLAWTAVGLPLQDVSVAACNFCRRPVHFELMSEWERSYFGNMGPQYVTTYA
partner: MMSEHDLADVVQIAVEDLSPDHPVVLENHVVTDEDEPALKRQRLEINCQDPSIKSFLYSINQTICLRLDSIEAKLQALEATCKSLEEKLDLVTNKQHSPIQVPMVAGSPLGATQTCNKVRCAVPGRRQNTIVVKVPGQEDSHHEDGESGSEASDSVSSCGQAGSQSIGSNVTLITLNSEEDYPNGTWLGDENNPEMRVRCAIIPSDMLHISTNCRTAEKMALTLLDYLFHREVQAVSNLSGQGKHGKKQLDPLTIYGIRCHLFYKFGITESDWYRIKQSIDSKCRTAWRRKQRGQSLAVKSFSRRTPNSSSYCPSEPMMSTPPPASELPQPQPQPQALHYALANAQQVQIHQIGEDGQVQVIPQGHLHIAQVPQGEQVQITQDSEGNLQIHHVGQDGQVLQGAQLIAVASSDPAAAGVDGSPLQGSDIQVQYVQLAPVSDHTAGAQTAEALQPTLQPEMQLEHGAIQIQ
B2: Adenosylhomocysteinase (Homo sapiens), P23526 (parent)
chain: MSDKLPYKVADIGLAAWGRKALDIAENEMPGLMRMRERYSASKPLKGARIAGCLHMTVETAVLIETLVTLGAEVQWSSCNIFSTQDHAAAAIAKAGIPVYAWKGETDEEYLWCIEQTLYFKDGPLNMILDDGGDLTNLIHTKYPQLLPGIRGISEETTTGVHNLYKMMANGILKVPAINVNDSVTKSKFDNLYGCRESLIDGIKRATDVMIAGKVAVVAGYGDVGKGCAQALRGFGARVIITEIDPINALQAAMEGYEVTTMDEACQEGNIFVTTTGCIDIILGRHFEQMKDDAIVCNIGHFDVEIDVKWLNENAVEKVNIKPQVDRYRLKNGRRIILLAEGRLVNLGCAMGHPSFVMSNSFTNQVMAQIELWTHPDKYPVGVHFLPKKLDEAVAEAHLGKLNVKLTKLTEKQAQYLGMSCDGPFKPDHYRY
partner: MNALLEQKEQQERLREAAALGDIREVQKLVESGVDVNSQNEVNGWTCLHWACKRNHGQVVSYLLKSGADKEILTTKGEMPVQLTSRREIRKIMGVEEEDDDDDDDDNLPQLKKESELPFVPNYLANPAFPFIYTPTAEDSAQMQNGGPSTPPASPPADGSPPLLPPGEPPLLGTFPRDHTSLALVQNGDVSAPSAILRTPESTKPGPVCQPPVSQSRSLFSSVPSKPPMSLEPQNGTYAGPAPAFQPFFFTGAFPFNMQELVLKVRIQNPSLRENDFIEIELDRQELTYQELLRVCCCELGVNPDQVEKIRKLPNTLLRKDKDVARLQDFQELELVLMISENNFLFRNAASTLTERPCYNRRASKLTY
B3: ATP synthase mitochondrial F1 complex assembly factor 2 (Homo sapiens), Q8N5M1 (parent)
chain: MWRSCLRLRDGGRRLLNRPAGGPSASMSPGPTIPSPARAYAPPTERKRFYQNVSITQGEGGFEINLDHRKLKTPQAKLFTVPSEALAIAVATEWDSQQDTIKYYTMHLTTLCNTSLDNPTQRNKDQLIRAAVKFLDTDTICYRVEEPETLVELQRNEWDPIIEWAEKRYGVEISSSTSIMGPSIPAKTREVLVSHLASYNTWALQGIEFVAAQLKSMVLTLGLIDLRLTVEQAVLLSRLEEEYQIQKWGNIEWAHDYELQELRARTAAGTLFIHLCSESTTVKHKLLKE
partner: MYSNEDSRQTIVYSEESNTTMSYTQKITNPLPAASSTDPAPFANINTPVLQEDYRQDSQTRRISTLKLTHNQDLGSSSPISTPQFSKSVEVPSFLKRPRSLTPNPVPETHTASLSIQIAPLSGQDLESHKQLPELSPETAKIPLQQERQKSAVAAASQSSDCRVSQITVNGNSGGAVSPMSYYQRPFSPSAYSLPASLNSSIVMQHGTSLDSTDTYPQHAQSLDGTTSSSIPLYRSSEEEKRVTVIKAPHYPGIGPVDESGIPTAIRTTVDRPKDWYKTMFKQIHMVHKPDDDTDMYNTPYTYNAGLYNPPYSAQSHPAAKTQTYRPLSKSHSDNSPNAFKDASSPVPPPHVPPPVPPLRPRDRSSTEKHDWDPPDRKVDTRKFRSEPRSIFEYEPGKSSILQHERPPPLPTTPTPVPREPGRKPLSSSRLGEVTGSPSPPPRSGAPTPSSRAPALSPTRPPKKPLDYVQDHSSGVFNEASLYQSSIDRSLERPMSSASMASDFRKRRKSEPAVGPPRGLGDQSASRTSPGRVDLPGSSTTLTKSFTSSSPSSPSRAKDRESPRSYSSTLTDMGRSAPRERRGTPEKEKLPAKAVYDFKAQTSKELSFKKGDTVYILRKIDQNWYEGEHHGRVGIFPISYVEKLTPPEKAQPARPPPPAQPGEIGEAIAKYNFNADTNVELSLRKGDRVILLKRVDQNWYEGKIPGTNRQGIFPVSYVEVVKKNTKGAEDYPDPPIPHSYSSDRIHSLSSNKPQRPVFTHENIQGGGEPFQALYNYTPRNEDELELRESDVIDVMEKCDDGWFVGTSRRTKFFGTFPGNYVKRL
B4: Sulfite oxidase, mitochondrial (Homo sapiens), P51687 (parent)
chain: MLLLHRAVVLRLQQACRLKSIPSRICIQACSTNDSFQPQRPSLTFSGDNSSTQGWRVMGTLLGLGAVLAYQDHRCRAAQESTHIYTKEEVSSHTSPETGIWVTLGSEVFDVTEFVDLHPGGPSKLMLAAGGPLEPFWALYAVHNQSHVRELLAQYKIGELNPEDKVAPTVETSDPYADDPVRHPALKVNSQRPFNAEPPPELLTENYITPNPIFFTRNHLPVPNLDPDTYRLHVVGAPGGQSLSLSLDDLHNFPRYEITVTLQCAGNRRSEMTQVKEVKGLEWRTGAISTARWAGARLCDVLAQAGHQLCETEAHVCFEGLDSDPTGTAYGASIPLARAMDPEAEVLLAYEMNGQPLPRDHGFPVRVVVPGVVGARHVKWLGRVSVQPEESYSHWQRRDYKGFSPSVDWETVDFDSAPSIQELPVQSAITEPRDGETVESGEVTIKGYAWSGGGRAVIRVDVSLDGGLTWQVAKLDGEEQRPRKAWAWRLWQLKAPVPAGQKELNIVCKAVDDGYNVQPDTVAPIWNLRGVLSNAWHRVHVYVSP
B5: F-box only protein 7 (Homo sapiens), Q9Y3I1 (parent)
chain: MRLRVRLLKRTWPLEVPETEPTLGHLRSHLRQSLLCTWGYSSNTRFTITLNYKDPLTGDEETLASYGIVSGDLICLILQDDIPAPNIPSSTDSEHSSLQNNEQPSLATSSNQTSMQDEQPSDSFQGQAAQSGVWNDDSMLGPSQNFEAESIQDNAHMAEGTGFYPSEPMLCSESVEGQVPHSLETLYQSADCSDANDALIVLIHLLMLESGYIPQGTEAKALSMPEKWKLSGVYKLQYMHPLCEGSSATLTCVPLGNLIVVNATLKINNEIRSVKRLQLLPESFICKEKLGENVANIYKDLQKLSRLFKDQLVYPLLAFTRQALNLPDVFGLVVLPLELKLRIFRLLDVRSVLSLSAVCRDLFTASNDPLLWRFLYLRDFRDNTVRVQDTDWKELYRKRHIQRKESPKGRFVMLLPSSTHTIPFYPNPLHPRPFPSSRLPPGIIGGEYDQRPTLPYVGDPISSLIPGPGETPSQFPPLRPRFDPVGPLPGPNPILPGRGGPNDRFPFRPSRGRPTDGRLSFM
partner: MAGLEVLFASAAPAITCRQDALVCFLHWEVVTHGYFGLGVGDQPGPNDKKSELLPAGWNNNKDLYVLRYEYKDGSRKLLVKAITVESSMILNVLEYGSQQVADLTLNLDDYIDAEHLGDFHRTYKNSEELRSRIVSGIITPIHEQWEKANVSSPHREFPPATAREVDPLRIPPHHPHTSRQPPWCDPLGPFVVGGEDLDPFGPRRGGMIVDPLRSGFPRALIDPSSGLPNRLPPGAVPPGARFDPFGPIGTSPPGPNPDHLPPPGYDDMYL
B6: Inactive peptidyl-prolyl cis-trans isomerase FKBP6 (Homo sapiens), O75344 (parent)
chain: MGGSALNQGVLEGDDAPGQSLYERLSQRMLDISGDRGVLKDVIREGAGDLVAPDASVLVKYSGYLEHMDRPFDSNYFRKTPRLMKLGEDITLWGMELGLLSMRRGELARFLFKPNYAYGTLGCPPLIPPNTTVLFEIELLDFLDCAESDKFCALSAEQQDQFPLQKVLKVAATEREFGNYLFRQNRFYDAKVRYKRALLLLRRRSAPPEEQHLVEAAKLPVLLNLSFTYLKLDRPTIALCYGEQALIIDQKNAKALFRCGQACLLLTEYQKARDFLVRAQKEQPFNHDINNELKKLASCYRDYVDKEKEMWHRMFAPCGDGSTAGES
partner: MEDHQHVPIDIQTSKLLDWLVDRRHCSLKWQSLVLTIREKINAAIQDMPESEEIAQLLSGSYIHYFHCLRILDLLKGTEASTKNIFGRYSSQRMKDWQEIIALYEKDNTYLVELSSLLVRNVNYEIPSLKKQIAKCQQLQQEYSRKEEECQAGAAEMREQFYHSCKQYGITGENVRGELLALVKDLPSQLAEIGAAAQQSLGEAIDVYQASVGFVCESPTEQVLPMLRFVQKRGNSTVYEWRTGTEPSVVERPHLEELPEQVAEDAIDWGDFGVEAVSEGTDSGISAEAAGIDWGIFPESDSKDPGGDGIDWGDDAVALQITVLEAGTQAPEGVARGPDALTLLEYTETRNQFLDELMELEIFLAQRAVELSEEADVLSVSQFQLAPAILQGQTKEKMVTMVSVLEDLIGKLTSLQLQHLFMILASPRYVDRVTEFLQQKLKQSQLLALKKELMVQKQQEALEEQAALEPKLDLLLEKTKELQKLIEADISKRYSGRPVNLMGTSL

Variants of: B1
Details: with BANP

| Variant | effect of a mutation on the interaction |
| --- | --- |
| I439N | disrupting interaction strength |
| I252T | disrupting interaction strength |

Variants of: B2
Details: with anr40_human ANKRD40, Q6AI12

| Variant | effect of a mutation on the interaction |
| --- | --- |
| A89V | disrupting interaction strength |
| D86G | with no effect |
| Y143C | with no effect |

Variants of: B3
Details: with SORBS2, O94875-10

| Variant | effect of a mutation on the interaction |
| --- | --- |
| W94R | disrupting interaction strength |

Variants of: B4
Details: with nup62_human NUP62, P37198
nup62_human NUP62, P37198, sequence (P37198 whole entry): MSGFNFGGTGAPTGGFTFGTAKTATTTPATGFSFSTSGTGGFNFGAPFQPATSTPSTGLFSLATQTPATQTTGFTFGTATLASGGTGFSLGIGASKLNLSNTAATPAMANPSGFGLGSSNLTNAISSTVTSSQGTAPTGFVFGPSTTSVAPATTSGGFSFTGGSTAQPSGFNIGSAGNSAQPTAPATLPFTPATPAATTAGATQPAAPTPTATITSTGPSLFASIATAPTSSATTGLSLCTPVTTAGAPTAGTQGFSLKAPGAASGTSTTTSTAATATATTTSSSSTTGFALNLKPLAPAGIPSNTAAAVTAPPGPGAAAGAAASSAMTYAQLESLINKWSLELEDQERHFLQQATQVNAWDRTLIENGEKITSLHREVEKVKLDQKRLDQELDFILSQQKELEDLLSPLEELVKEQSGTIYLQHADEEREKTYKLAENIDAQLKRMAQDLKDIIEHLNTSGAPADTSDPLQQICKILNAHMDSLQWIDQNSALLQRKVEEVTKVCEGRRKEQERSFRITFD

| Variant | effect of a mutation on the interaction |
| --- | --- |
| W450R | disrupting interaction strength |
| Q396R | with no effect |

Variants of: B5
Details: with psmf1_human PSMF1, Q92530

| Variant | effect of a mutation on the interaction |
| --- | --- |
| T22M | disrupting interaction strength |

Variants of: B6
Details: with ck5p3_human CDK5RAP3, Q96JB5

| Variant | effect of a mutation on the interaction |
| --- | --- |
| F72L | disrupting interaction strength |
